In publication PMC9911985 (Journal of Molecular Biology, 2023):
Where no end group is shown, it is not given here. MBP = not defined here

B1: 6xHis-MBP-selenos 34–59 (domain or fragment)
chain: {6xHis-MBP}-GWYIVFSCILLYVVFQKLSARLRALR
modifications: reading uncertain
B2: 6xHis-MBP-selenos 34–65 (domain or fragment)
chain: {6xHis-MBP}-GWYIVFSCILLYVVFQKLSARLRALRQRQLDR
modifications: reading uncertain
B3: 6xHis-MBP-selenos 40–65 (domain or fragment)
chain: {6xHis-MBP}-SCILLYVVFQKLSARLRALRQRQLDR
modifications: reading uncertain
B4: 6xHis-MBP-selenos 40–59 (domain or fragment)
chain: {6xHis-MBP}-SCILLYVVFQKLSARLRALR
modifications: reading uncertain

What follows are binders tested against nsp7 with a C-terminal strep-tag II (nsp7-strep), SARS-CoV-2 nonstructural protein 7 (SARS-CoV-2, UniProt P0DTD1 3860-3942) (assay: pull-down).
B1: binds.
B2: binds.
B3: binds.
B4: binds.
